Experimental data: patent publication US20140120109A1

Key:
[1] = target: full length human TL1A expressed on HEK293 cells (human) (UniProt O95150); assay: flow, HEK293/hTL1A, isotype control in place of anti-hTL1A (background; columns c2-c7)
[2] = target: full length human TL1A expressed on HEK293 cells (human) (UniProt O95150); assay: flow, HEK293/hTL1A, isotype control 1 ug/ml in place of anti-hTL1A (background; same value as r16c2, printed under column 1805N)
[3] = target: full length human TL1A expressed on HEK293 cells (human) (UniProt O95150); assay: flow, HEK293/hTL1A, isotype control 1 ug/ml in place of anti-hTL1A (background; same value as r16c8, printed under column 1745P)
[4] = target: full length human TL1A expressed on HEK293 cells (human) (UniProt O95150); assay: flow, HEK293/hTL1A, isotype control 1 ug/ml in place of anti-hTL1A (background; same value as r16c2, printed under column 1817N)
[5] = target: full length human TL1A expressed on HEK293 cells (human) (UniProt O95150); assay: flow, HEK293/hTL1A, isotype control 1 ug/ml in place of anti-hTL1A (background; same value as r16c2, printed under column 1742P)
[6] = target: full length human TL1A expressed on HEK293 cells (human) (UniProt O95150); assay: flow, HEK293/hTL1A, isotype control 1 ug/ml in place of anti-hTL1A (background; same value as r16c2, printed under column 1804N)
[7] = target: full length human TL1A expressed on HEK293 cells (human) (UniProt O95150); assay: flow, HEK293/hTL1A, isotype control in place of anti-hTL1A (background; columns c8-c9)
[8] = target: full length human TL1A expressed on HEK293 cells (human) (UniProt O95150); assay: flow, HEK293/hTL1A, isotype control 1 ug/ml in place of anti-hTL1A (background; same value as r16c2, printed under column 1725P)

Chain of full length human TL1A expressed on HEK293 cells (human) (O95150 whole entry): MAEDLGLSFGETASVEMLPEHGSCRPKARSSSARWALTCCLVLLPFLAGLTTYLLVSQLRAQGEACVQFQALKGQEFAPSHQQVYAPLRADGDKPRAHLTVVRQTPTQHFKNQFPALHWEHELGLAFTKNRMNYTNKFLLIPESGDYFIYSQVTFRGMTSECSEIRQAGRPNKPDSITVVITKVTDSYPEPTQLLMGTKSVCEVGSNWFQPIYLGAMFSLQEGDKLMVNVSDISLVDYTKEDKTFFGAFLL

negative isotype control antibody (human IgG4)
MFI [1]: 27.5
MFI [2]: 27.5
MFI [3]: 17.9
MFI [4]: 27.5
MFI [5]: 27.5
MFI [6]: 27.5
MFI [7]: 17.9
MFI [8]: 27.5
